We go through three molecules from article PMC8887127.

Series [1] has as its target T1, GST-BEND3-BD4 (gel shift construct) (Homo sapiens, UniProt Q5T5X7 546-828).
T1 sequence: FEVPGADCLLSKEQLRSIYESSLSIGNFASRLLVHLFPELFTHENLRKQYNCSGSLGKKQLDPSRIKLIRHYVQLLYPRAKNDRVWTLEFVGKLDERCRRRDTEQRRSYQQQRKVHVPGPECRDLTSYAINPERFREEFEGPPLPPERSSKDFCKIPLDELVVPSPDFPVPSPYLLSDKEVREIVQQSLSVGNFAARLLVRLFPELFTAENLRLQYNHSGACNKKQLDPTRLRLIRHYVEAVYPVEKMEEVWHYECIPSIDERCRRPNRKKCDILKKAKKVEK
The series can be described thus: EMSA. (In general: Mobility shift assays separate free from complexed probe on a gel.)

Series [2] concerns the target T2, BEND3-BD4 (crystal construct) (Homo sapiens, UniProt Q5T5X7 715-828).
T2 sequence: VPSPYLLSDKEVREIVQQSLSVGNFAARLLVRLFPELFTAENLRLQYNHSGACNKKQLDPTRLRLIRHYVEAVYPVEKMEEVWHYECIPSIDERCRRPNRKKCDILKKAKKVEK
The series can be described thus: X-ray crystallography.

B1: mutant BD4 probe (dsDNA)
DNA 1: CTAAACCTTTCTACGCTAAAACCTGTCTT
DNA 2: AAGACAGGTTTTAGCGTAGAAAGGTTTAG
Turning to B1, the binding result in series [1] is “no binding”.

B2: 13-mer BD4 target duplex (dsDNA)
DNA 1: GGACCCACGCAGC
DNA 2: GGCTGCGTGGGTC
B2: the binding result in series [2] was “binds”.

B3: wild-type BD4 probe (dsDNA)
DNA 1: CTAAACACCCACGCGCCGTGGGTTGTCTT
DNA 2: AAGACAACCCACGGCGCGTGGGTGTTTAG
In the case of B3, the binding result in series [1] is recorded as “binds”.
